In PMC5560758, “SCF^AtPP2-B11 modulates ABA signaling by facilitating SnRK2.3 degradation in Arabidopsis thaliana” (PLoS Genetics, 2017):

Biological target: T1, MBP-SnRK2.3 (Arabidopsis thaliana, UniProt Q39193 1-361)
T1 construct: SnRK2.3 (SnRK2I) of Arabidopsis thaliana; ORF cloned into pMAL-c2x; pMAL-c2x places MBP at the N-terminus (surmised from the vector); also called SnRK2.3-MBP; source: E. coli BL21, purified (Amylose Resin)
T1 sequence (looked up): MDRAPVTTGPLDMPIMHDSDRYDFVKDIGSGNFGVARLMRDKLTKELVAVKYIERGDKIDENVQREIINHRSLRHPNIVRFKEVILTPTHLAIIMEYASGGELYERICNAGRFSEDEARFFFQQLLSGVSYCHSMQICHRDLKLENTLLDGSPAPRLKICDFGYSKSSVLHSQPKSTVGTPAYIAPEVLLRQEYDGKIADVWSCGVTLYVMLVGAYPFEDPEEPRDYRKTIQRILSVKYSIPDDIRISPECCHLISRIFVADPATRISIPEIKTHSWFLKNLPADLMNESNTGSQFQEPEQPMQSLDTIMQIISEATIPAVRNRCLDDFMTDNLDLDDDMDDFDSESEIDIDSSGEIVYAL
Test: pull-down; AtPP2-B11-GST held on GST beads, incubated with MBP-SnRK2s 2 h at room temperature or 4°C overnight; washed four times; anti-MBP blot
Conditions: both partners purified

binding result: binds
B1: GST-AtPP2-B11 (natural protein, Arabidopsis thaliana, UniProt Q949S5 1-257, looked up)
chain: MNNLPEDCIAKILSLTTPLDVCRLSAVSSIFRSAAGSDDVWNHFLPADFPAGFAAPAGLPTRKQLFFSLVDNPLLINGTLLSFSLERKSGNKCYMMAARALNIVWGHEQRYWHWISLPNTRFGEVAELIMVWWLEITGKINITLLSDDTLYAAYFVFKWNHSPYGFRQPVETSLVLADTESTDNVVQPSMISLMQDSGGEEGQSPVLRRDGWYEVELGQFFKRRGDLGEIEMSLKETKGPYEKKGLIVYGIEIRPVP
notes: AtPP2-B11, F-box protein of Arabidopsis thaliana, 257 amino acids; ORF cloned into pGEX-4T-1; pGEX-4T-1 places GST at the N-terminus (surmised from the vector); also called AtPP2-B11-GST; source: E. coli BL21, purified (Glutathione Agarose)
